Measurements taken from US20100167390, “Novel Oligonucleotide and NF-kB Decoy Comprising the Same” (published 2010).

What was measured:
[1] = target: T1, NF-kB p65 (RelA) (UniProt Q04206 Q04206:1-551); assay: competition; primary screen 2.01; conditions: protein: extract; tags: TPA and CI-stimulated Jurkat nuclear extract, Active Motif TransAM kit
Description: (§1) The measurement was performed in accordance with the instructions attached to the kit. The kit was made for quantifying the NF-κB bound to the solid phase by ELISA after adding an NF-κB solution to the wells in which the NF-κB (p65 protein) consensus binding sequence was immobilized and after washing the resultant. By this measurement method, the higher the binding capacity of the oligonucleotide to the NF-κB, the smaller amount of the NF-κB quantified by the ELISA.
(§2) More concretely, the above-described measurement was carried out as follows concretely: Each SODN solution was serially diluted with Complete Binding Buffer contained in the kit to prepare test samples (common ratio: 3-fold, 4 times, n=3). […] After allowing coloration for 10 minutes, the Stop Solution was added to stop the reaction, and the absorbances at 450 nm and 630 nm were measured.
(§3) The absorbance at 630 nm was subtracted from the absorbance at 450 nm and the mean value of the blanks was further subtracted from the resultant, and the percentage of the mean value of each concentration based on the mean value of the controls was calculated. The concentration at which the calculated value was 50% (i.e., at which the binding was inhibited by 50%) was calculated from the regression lines between two points interposing 50% (an analysis software Graph Pad PRISM 4, GraphPad SOFTWARE was used). […]

[2] = target: T2, NF-kB p52 (NFKB2) (UniProt Q00653 Q00653:1-454); assay: competition; conditions: protein: extract; tags: Raji nuclear extract, Active Motif
T2 sequence: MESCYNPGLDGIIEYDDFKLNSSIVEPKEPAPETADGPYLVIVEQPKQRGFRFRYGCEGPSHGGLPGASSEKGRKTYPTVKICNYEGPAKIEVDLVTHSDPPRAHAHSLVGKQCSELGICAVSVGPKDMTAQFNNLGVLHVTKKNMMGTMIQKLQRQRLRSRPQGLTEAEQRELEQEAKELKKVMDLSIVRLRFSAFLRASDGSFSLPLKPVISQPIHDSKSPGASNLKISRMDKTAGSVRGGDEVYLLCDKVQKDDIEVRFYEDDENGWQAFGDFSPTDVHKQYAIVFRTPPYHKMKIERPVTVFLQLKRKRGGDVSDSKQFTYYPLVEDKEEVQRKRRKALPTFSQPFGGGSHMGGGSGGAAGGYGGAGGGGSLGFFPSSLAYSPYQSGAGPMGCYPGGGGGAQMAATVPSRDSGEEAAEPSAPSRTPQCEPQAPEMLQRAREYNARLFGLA
Description: (§4) The study was carried out in basically the same manner as in the above-described primary screening. The activities to inhibit the binding of various NF-κB family proteins to the consensus NF-κB binding site were compared under the conditions of common ratio of 3-fold, 6 times, n=2. As a control for comparison, fully phosphorothioated decoy oligonucleotide […] (SEQ ID NO:103) was used. The binding inhibition tests against various NF-κB family proteins were conducted using NF-κB Family TransAM Kit (ACTIVE MOTIF), and using NF-κB molecules in the Jurkat, TPA and CI-Stimulated, Nuclear Extract (ACTIVE MOTIF) for p50, and using NF-κB molecules in the Raji nuclear extract (ACTIVE MOTIF) for Rel-B and p52. As the primary antibodies, anti-NF-κB p50 antibody, anti-NF-κB p52 antibody and anti-Rel-B antibody were used, respectively, and the secondary antibody was HRP-labeled anti-rabbit IgG antibody in all cases.
(§5) More concretely, the above-described measurements were carried out as follows: Each oligonucleotide solution was serially diluted with Complete Binding Buffer to prepare test samples. Each of the test samples was added to the wells in an amount of 30 μL per well, and Complete Binding Buffer was added to the wells of the control and blank. Nuclear extract diluted with Complete Lysis Buffer was added to the wells in an amount of 20 μL per well, and Complete Lysis Buffer was added to the wells of blank. After incubation for 1 hour with shaking, each well was washed with 1× Wash Buffer, and the primary antibody was added, followed by incubation for 1 hour. Each well was washed with 1× Wash Buffer, and the secondary antibody was added, followed by incubation for 1 hour. Each well was washed with 1× Wash Buffer, and the Developing Solution was added. After allowing coloration for 10 minutes, the Stop Solution was added to stop the reaction, and the absorbances at 450 nm and 630 nm were measured.
(§6) The absorbance at 630 nm was subtracted from the absorbance at 450 nm and the mean value of the blanks was further subtracted from the resultant, and the percentage of the mean value of each concentration based on the mean value of the controls was calculated.

[3] = target: NF-kB p50 (NFKB1) (UniProt P19838 P19838:1-433); assay: competition; conditions: protein: extract; tags: TPA and CI-stimulated Jurkat nuclear extract, Active Motif
Description: as §4, §5, §6

[4] = target: T1, NF-kB p65 (RelA); assay: competition; conditions: protein: extract; tags: TPA and CI-stimulated Jurkat nuclear extract, Active Motif TransAM kit
Description: The binding capacity of each SODN to NF-κB was evaluated by measuring the remaining free NF-κB after reacting each SODN with NF-κB (p65), using a commercially available kit (TransAM Kit (NF-κB, p65, ACTIVE MOTIF) for measuring NF-κB, and using NF-κB molecules in the Jurkat, TPA and CI-Stimulated, Nuclear Extract (nuclear extract of Jurkat cells stimulated with a phorbol ester (TPA) and a calcium ionophore (CI)). The measurement was performed in accordance with the instructions attached to the kit. The kit was made for quantifying the NF-κB bound to the solid phase by ELISA after adding an NF-κB solution to the wells in which the NF-κB (p65 protein) consensus binding sequence was immobilized and after washing the resultant. By this measurement method, the higher the binding capacity of the oligonucleotide to the NF-κB, the smaller amount of the NF-κB quantified by the ELISA.
More concretely, the above-described measurement was carried out as follows concretely: Each SODN solution was serially diluted with Complete Binding Buffer contained in the kit to prepare test samples (common ratio: 3-fold, 4 times, n=3). To each well, 30 μL of the test sample was added. To the wells of the control and blank, Complete Binding Buffer was added. To each well, 20 μL of the Jurkat, TPA and CI-Stimulated, Nuclear Extract contained in the kit, after dilution with Complete Lysis Buffer to a concentration of 125 μg/mL, was added. To the wells of the blank, Complete Lysis Buffer was added. After incubation for 1 hour with shaking, each well was washed with 1× Wash Buffer contained in the kit, and an anti-NF-κB (p65 protein) antibody was added, followed by incubation for 1 hour. Each well was washed with 1× Wash Buffer, and the Developing Solution contained in the kit was added. After allowing coloration for 10 minutes, the Stop Solution was added to stop the reaction, and the absorbances at 450 nm and 630 nm were measured.
The binding capacities of the partially phosphorothioated oligonucleotides (the bonds between only all of the nucleotides constituting the consensus sequence in both strands are phosphorothioated, hereinafter also referred to as “PSODN”) of SODNs 7, 8, 9, 16, 17 and 30 of the present invention to the NF-κB (p65 protein) were tested in the same manner as described above.

[5] = target: T1, NF-kB p65 (RelA); assay: competition; ELISA competition with immobilized consensus site; 4.77 in Table 3-2, 4.93 in Table 4; Table 7 lists 4.93, 4.30, 3.24 in PSODN, FSODN, ODN columns; conditions: protein: extract; tags: TPA and CI-stimulated Jurkat nuclear extract, Active Motif TransAM kit
[6] = target: T1, NF-kB p65 (RelA); assay: competition; primary screen 3.06; conditions: protein: extract; tags: TPA and CI-stimulated Jurkat nuclear extract, Active Motif TransAM kit
Description: as §1, §2, §3

[7] = target: T1, NF-kB p65 (RelA); assay: competition; primary screen 2.23; conditions: protein: extract; tags: TPA and CI-stimulated Jurkat nuclear extract, Active Motif TransAM kit
Description: as §1, §2, §3

[8] = target: T1, NF-kB p65 (RelA); assay: competition; conditions: protein: extract; tags: TPA and CI-stimulated Jurkat nuclear extract, Active Motif TransAM kit; remark: listed apart in the source
Description: To study the influence by the phosphorothioation site in the oligonucleotide sequence, decoy oligonucleotides (FSODN) in which only the flanking sequences were phosphorothioated and decoy oligonucleotides (ODN) without phosphorothioation having the same sequences, respectively, were synthesized. The binding inhibition activities were compared under the conditions of common ratio of 3-fold, 6 times, n=2. The binding inhibition tests against NF-κB p65 protein was carried out using NF-κB, p65 TransAM Kit (produced by ACTIVE MOTIF), and using NF-κB protein molecules in the Jurkat, TPA and CI-Stimulated, Nuclear
Extract (produced by ACTIVE MOTIF). The testing method was the same as in the above-described Example 5. The term “only the flanking sequences were phosphorothioated” means that the bonds in the flanking sequences and the bonds between the respective flanking sequences and the core were phosphorothioated. For example, as for Sequence 7, it is CsGsCs[…]sAsGsC. The values for PSODNs are those obtained in the secondary screening (above-described Table 4).

[9] = target: T1, NF-kB p65 (RelA); assay: competition; primary screen >5; conditions: protein: extract; tags: TPA and CI-stimulated Jurkat nuclear extract, Active Motif TransAM kit
Description: as §1, §2, §3

T1 sequence (Q04206 whole entry, one chain of several): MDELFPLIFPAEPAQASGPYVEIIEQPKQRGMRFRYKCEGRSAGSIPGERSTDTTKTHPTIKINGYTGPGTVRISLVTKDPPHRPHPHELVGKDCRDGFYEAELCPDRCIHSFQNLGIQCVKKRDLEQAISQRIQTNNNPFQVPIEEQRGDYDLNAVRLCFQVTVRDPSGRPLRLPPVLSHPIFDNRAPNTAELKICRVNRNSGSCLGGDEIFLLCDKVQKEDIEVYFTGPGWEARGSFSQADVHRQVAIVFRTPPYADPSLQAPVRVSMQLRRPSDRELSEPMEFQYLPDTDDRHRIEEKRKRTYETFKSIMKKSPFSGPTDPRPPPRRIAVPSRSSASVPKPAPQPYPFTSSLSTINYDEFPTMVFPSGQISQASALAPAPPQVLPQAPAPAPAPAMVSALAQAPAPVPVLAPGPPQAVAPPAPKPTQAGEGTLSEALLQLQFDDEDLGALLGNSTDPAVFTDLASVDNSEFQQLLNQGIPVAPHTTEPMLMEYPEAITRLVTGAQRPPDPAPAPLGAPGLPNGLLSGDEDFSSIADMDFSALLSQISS
Sequence of NF-kB p50 (NFKB1) (P19838 1-433, one chain of several): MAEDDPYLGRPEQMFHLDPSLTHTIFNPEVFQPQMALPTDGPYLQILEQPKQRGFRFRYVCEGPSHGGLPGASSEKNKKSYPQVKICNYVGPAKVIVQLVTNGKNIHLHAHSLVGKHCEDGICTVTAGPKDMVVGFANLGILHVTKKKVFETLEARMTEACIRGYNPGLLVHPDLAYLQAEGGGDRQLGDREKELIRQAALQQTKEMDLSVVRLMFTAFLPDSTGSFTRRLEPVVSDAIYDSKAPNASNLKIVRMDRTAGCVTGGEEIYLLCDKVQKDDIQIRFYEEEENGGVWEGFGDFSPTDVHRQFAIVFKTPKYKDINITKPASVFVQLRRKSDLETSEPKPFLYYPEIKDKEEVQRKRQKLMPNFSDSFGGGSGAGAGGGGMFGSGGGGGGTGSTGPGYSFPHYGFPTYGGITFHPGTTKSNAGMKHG

B1: SODN9 (dsDNA)
DNA 1: GGAGGGATTTCCCGGG
DNA 2: CCCGGGAAATCCCTCC
modifications: PS all bonds, both strands
Which IC50 [1] does the source give for B1 here?
Its IC50 is 1.88 nM.

B2: PSODN8 (dsDNA)
DNA 1: CCCGGGATTTCCCACC
DNA 2: GGTGGGAAATCCCGGG
modifications: PS only within consensus gggatttccc, both strands
For B2, which IC50 [2] is on record?
The IC50 was 3.22 nM.

What about the IC50 [3] of the same binder?
The IC50 was 1.08 nM.

What about the IC50 [4] of the same binder?
The IC50 was 0.63 nM.

B3: PSODN7 (dsDNA)
DNA 1: CGCGGGATTTCCCAGC
DNA 2: GCTGGGAAATCCCGCG
modifications: PS only within consensus gggatttccc, both strands
Which results are given for B3?
IC50 [2]: 3.01 nM; IC50 [3]: 1.02 nM; IC50 [4]: 0.54 nM

B4: Control decoy (conventional NF-kB decoy) (dsDNA)
DNA 1: CCTTGAAGGGATTTCCCTCC
DNA 2: GGAGGGAAATCCCTTCAAGG
modifications: PS all bonds, both strands
For B4, which IC50 [2] is on record?
Its IC50 is 8.42 nM.

What about the IC50 [3] of the same binder?
Its IC50 is 8.45 nM.

What about the IC50 [5] of the same binder?
Its IC50 is 5.26 nM.

B5: SODN91 (dsDNA)
DNA 1: GTAAAATGGGATTTCCCGAG
DNA 2: CTCGGGAAATCCCATTTTAC
modifications: PS all bonds, both strands
B5 was tested. Which IC50 [6] did it give?
Its IC50 is 2.58 nM.

B6: SODN8 (dsDNA)
DNA 1: CCCGGGATTTCCCACC
DNA 2: GGTGGGAAATCCCGGG
modifications: PS all bonds, both strands
B6 was tested. Which IC50 [1] did it give?
Its IC50 is 2.12 nM.

B7: SODN27 (dsDNA)
DNA 1: CGCAGGGATTTCCCGCGC
DNA 2: GCGCGGGAAATCCCTGCG
modifications: PS all bonds, both strands
For B7, which IC50 [7] is on record?
The IC50 was 2.87 nM.

B8: FSODN16 (dsDNA)
DNA 1: CGCAGGGATTTCCCGCG
DNA 2: CGCGGGAAATCCCTGCG
modifications: PS only in flanks and flank-core bonds
B8 was tested. Which IC50 [8] did it give?
The IC50 was 1.11 nM.

B9: SODN83 (dsDNA)
DNA 1: CAAGTAGGGATTTCCCATAC
DNA 2: GTATGGGAAATCCCTACTTG
modifications: PS all bonds, both strands
B9 was tested. Which IC50 [9] did it give?
Its IC50 is 7.33 nM.
